Target: DTX3L RD (RING-DTC) (Homo sapiens, UniProt Q8TDB6 544-740)
Assay: EMSA; 5 mM Mg2+; protein 0.5, 1, 2 uM; RNA 0.5 uM; EMSA: 20 mM HEPES pH 7.5, 50 mM KCl, 5 mM MgCl2, 1 mM DTT, on ice 0.5 h, 6% native PAGE
Settings: protein: recombinant; label: 3' Cy3; single strand

DTX3L RD (RING-DTC), sequence (Q8TDB6 544-740): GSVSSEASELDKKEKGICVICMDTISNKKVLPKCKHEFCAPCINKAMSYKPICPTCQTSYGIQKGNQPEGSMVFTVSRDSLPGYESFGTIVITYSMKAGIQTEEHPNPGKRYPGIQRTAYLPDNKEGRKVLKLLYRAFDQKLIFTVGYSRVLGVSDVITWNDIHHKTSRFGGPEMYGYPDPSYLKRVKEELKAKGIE

GUGGCGCGGAGACUUAGAGAAAUUGUGAUCAGGAA (ssRNA, 5' phosphate) [E35_5'P_RNA_3Cy3]
binding result: no binding

Reference: paper PMC10810221, “DELTEX E3 ligases ubiquitylate ADP-ribosyl modification on nucleic acids”
